Changes are numbered by the printed parent chain. Names and notes keep the numbering of the source.
B1: Prp8 residues 315-555 (Prp8^SBR), chymotryptic fragment (domain or fragment, yeast, UniProt P33334 315-555, looked up)
chain: STPLRDEVTDKNYYYLFDKKSFFNGKALNNAIPGGPKFEPLYPREEEEDYNEFNSIDRVIFRVPIRSEYKVAFPHLYNSRPRSVRIPWYNNPVSCIIQNDEEYDTPALFFDPSLNPIPHFIDNNSSLNVSNTKENGDFTLPEDFAPLLAEEEELILPNTKDAMSLYHSPFPFNRTKGKMVRAQDVALAKKWFLQHPDEEYPVKVKVSYQKLLKNYVLNELHPTLPTNHNKTKLLKSLKNTK
B2: Snu114^72-1008 (yeast Snu114 lacking the acidic N-terminal region) (domain or fragment, UniProt P36048 72-1008, looked up)
chain: KEVEVLMETKNTQSPQTPLVEPVTERTKLQEHTIFTQLKKNIPKTRYNRDYMLSMANIPERIINVGVIGPLHSGKTSLMDLLVIDSHKRIPDMSKNVELGWKPLRYLDNLKQEIDRGLSIKLNGSTLLCTDLESKSRMINFLDAPGHVNFMDETAVALAASDLVLIVIDVVEGVTFVVEQLIKQSIKNNVAMCFVINKLDRLILDLKLPPMDAYLKLNHIIANINSFTKGNVFSPIDNNIIFASTKLGFTFTIKEFVSYYYAHSIPSSKIDDFTTRLWGSVYYHKGNFRTKPFENVEKYPTFVEFILIPLYKIFSYALSMEKDKLKNLLRSNFRVNLSQEALQYDPQPFLKHVLQLIFRQQTGLVDAITRCYQPFELFDNKTAHLSIPGKSTPEGTLWAHVLKTVDYGGAEWSLVRIYSGLLKRGDTVRILDTSQSESRQKRQLHDISKTETSNEDEDEDDETPSCEVEEIGLLGGRYVYPVHEAHKGQIVLIKGISSAYIKSATLYSVKSKEDMKQLKFFKPLDYITEAVFKIVLQPLLPRELPKLLDALNKISKYYPGVIIKVEESGEHVILGNGELYMDCLLYDLRASYAKIEIKISDPLTVFSESCSNESFASIPVSNSISRLGEENLPGLSISVAAEPMDSKMIQDLSRNTLGKGQNCLDIDGIMDNPRKLSKILRTEYGWDSLASRNVWSFYNGNVLINDTLPDEISPELLSKYKEQIIQGFYWAVKEGPLAEEPIYGVQYKLLSISVPSDVNIDVMKSQIIPLMKKACYVGLLTAIPILLEPIYEVDITVHAPLLPIVEELMKKRRGSRIYKTIKVAGTPLLEVRGQVPVIESAGFETDLRLSTNGLGMCQLYFWHKIWRKVPGDVLDKDAFIPKLKPAPINSLSRDFVMKTRRRKGISTGGFMSNDGPTLEKYISAELYAQLRENGLVP
notes: synthetic gene; Co-purifies with endogenous GTP; source: insect cells (MultiBac baculovirus); co-produced with Prp8 constructs or alone; purified (StrepTactin, SEC); not shown: Strep tag (from the vector pIDS-C-Strep), C-terminal, kept
B3: Aar2 (natural protein, yeast, UniProt P32357 1-355, looked up)
chain: MNTVPFTSAPIEVTIGIDQYSFNVKENQPFHGIKDIPIGHVHVIHFQHADNSSMRYGYWFDCRMGNFYIQYDPKDGLYKMMEERDGAKFENIVHNFKERQMMVSYPKIDEDDTWYNLTEFVQMDKIRKIVRKDENQFSYVDSSMTTVQENELLKSSLQKAGSKMEAKNEDDPAHSLNYTVINFKSREAIRPGHEMEDFLDKSYYLNTVMLQGIFKNSSNYFGELQFAFLNAMFFGNYGSSLQWHAMIELICSSATVPKHMLDKLDEILYYQIKTLPEQYSDILLNERVWNICLYSSFQKNSLHNTEKIMENKYPELLGKDNEDDALIYGISDEERDDEDDEHNPTIVGGLYYQRP
notes: Aar2, U5 snRNP assembly factor, yeast; synthetic gene; source: complex purified (StrepTactin, Heparin, Mono Q, SEC); not shown: Strep tag (from the vector pIDK-C-Strep), C-terminal, kept
B4: Prp8^SBR Δ421–468 (domain or fragment, yeast, UniProt P33334 315-555, looked up)
chain: STPLRDEVTDKNYYYLFDKKSFFNGKALNNAIPGGPKFEPLYPREEEEDYNEFNSIDRVIFRVPIRSEYKVAFPHLYNSRPRSVRIPWYNNPVSCIIQNDEEYDTPILPNTKDAMSLYHSPFPFNRTKGKMVRAQDVALAKKWFLQHPDEEYPVKVKVSYQKLLKNYVLNELHPTLPTNHNKTKLLKSLKNTK
notes: also called Prp8^Δ421–468; source: insect cells, co-produced with Snu114; complex purified; not shown: Strep tag (from the vector pFL-N-Strep), N-terminal, kept
B5: Prp8^SBR Δ402–406 (domain or fragment, yeast, UniProt P33334 315-555, looked up)
chain: STPLRDEVTDKNYYYLFDKKSFFNGKALNNAIPGGPKFEPLYPREEEEDYNEFNSIDRVIFRVPIRSEYKVAFPHLYNSRPRSVRIPVSCIIQNDEEYDTPALFFDPSLNPIPHFIDNNSSLNVSNTKENGDFTLPEDFAPLLAEEEELILPNTKDAMSLYHSPFPFNRTKGKMVRAQDVALAKKWFLQHPDEEYPVKVKVSYQKLLKNYVLNELHPTLPTNHNKTKLLKSLKNTK
notes: also called Prp8^Δ402–406; source: insect cells, co-produced with Snu114; complex purified; not shown: Strep tag (from the vector pFL-N-Strep), N-terminal, kept
B6: Prp8^SBR WY402-403AA (domain or fragment)
chain: not shown
notes: also called Prp8^WY402/3AA; source: insect cells, co-produced with Snu114; complex purified; not shown: Strep tag (from the vector pFL-N-Strep), N-terminal, kept
B7: Prp8^SBR Y403F (domain or fragment, yeast, UniProt P33334 315-555, looked up)
chain: B1 chain with Y89F
notes: also called Prp8^Y403F; source: insect cells, co-produced with Snu114; complex purified; not shown: Strep tag (from the vector pFL-N-Strep), N-terminal, kept
B8: Prp8^SBR Y403A (domain or fragment, yeast, UniProt P33334 315-555, looked up)
chain: B1 chain with Y89A
notes: also called Prp8^Y403A; source: insect cells, co-produced with Snu114; complex purified; not shown: Strep tag (from the vector pFL-N-Strep), N-terminal, kept
B9: Prp8^SBR 402–406_5S (domain or fragment, yeast, UniProt P33334 315-555, looked up)
chain: B1 chain with W88S, Y89S, N90S, N91S, P92S
notes: also called Prp8^402–406_5S; source: insect cells, co-produced with Snu114; complex purified; not shown: Strep tag (from the vector pFL-N-Strep), N-terminal, kept

Target: B2
Experiment: SEC; limited proteolysis of the purified trimeric complex with chymotrypsin (room temperature, 35 min), then SEC on Superose 6 Increase in 20 mM TRIS-HCl pH 8.5, 500 mM NaCl, 2 mM DTT; fragments identified by mass spectrometric fingerprinting and N-terminal sequencing
Settings: both partners purified

Row | Binder | binding result
1 | B1 | binds

Target: T1, Prp8^132-2413 (large fragment of yeast Prp8 lacking the first 131 residues) (yeast, UniProt P33334 132-2413)
T1 construct: Prp8, yeast, residues 132-2413; synthetic gene; methods and results print 132-2413; source: complex purified (StrepTactin, Heparin, Mono Q, SEC); not shown: Strep tag (from the vector pFL-C-Strep), C-terminal, kept
Experiment: SEC; three proteins co-produced in insect cells, all Strep-tagged; complex purified by StrepTactin, Heparin, Mono Q and SEC (Superose 6, 50 mM TRIS-HCl pH 8.5, 300 mM NaCl, 2 mM DTT); analytical gel filtration with SDS-PAGE of fractions
Settings: both partners purified

Row | Binder | binding result
2 | B2 | binds
3 | B3 | binds

Target: B2
Experiment: SEC; two proteins co-produced in insect cells, both Strep-tagged; StrepTactin capture, then SEC on Superdex S200 in 10 mM TRIS-HCl pH 8.0, 300 mM NaCl, 2 mM DTT; co-purification of wt and variant complexes
Settings: both partners purified

Row | Binder | binding result
4 | B4 | binds
5 | B5 | binds
6 | B6 | binds
7 | B7 | binds
8 | B8 | binds
9 | B9 | binds
